Tested on: Escherichia coli TOP10
Assay: shrunken log2 fold change of peptide-encoding DNA abundance (4.5 h post-induction vs induction); higher = less antimicrobial activity (less host growth inhibition)
Settings: time post-induction: 4.5 h; library: site-saturation at positions 5, 18, 19, 20
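Note: peptides expressed intracellularly from a pBAD plasmid library in pooled LB shake-flask culture, induced with 0.3% L-arabinose, DNA abundance read by NGS, three biological replicates, DESeq2 with apeglm shrinkage.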

Sequence	shrunken log2 fold change
RRIRYRPPRLPRPRPRPKGQPRP	0.0405
RRIRIRPPRLPRPRPRPICEPRP	-0.0283
RRIRMRPPRLPRPRPRPKGLPRP	-0.0628
RRIRFRPPRLPRPRPRPLRSPRP	0.259
RRIRLRPPRLPRPRPRPDYNPRP	-0.657
RRIRARPPRLPRPRPRPGTDPRP	0.565
RRIRNRPPRLPRPRPRPRCNPRP	-0.0207
RRIRFRPPRLPRPRPRPLEKPRP	-0.14
RRIRARPPRLPRPRPRPKDEPRP	0.687
RRIRHRPPRLPRPRPRPDCFPRP	0.3
RRIRYRPPRLPRPRPRPGRMPRP	-0.642
RRIRPRPPRLPRPRPRPQWQPRP	-0.109
RRIRARPPRLPRPRPRPPDPPRP	1
RRIRRRPPRLPRPRPRPIPYPRP	-0.16
RRIRRRPPRLPRPRPRPNALPRP	0.261
RRIRTRPPRLPRPRPRPPYSPRP	-0.135
RRIRLRPPRLPRPRPRPICKPRP	-0.28
RRIRSRPPRLPRPRPRPTMEPRP	0.317
RRIRMRPPRLPRPRPRPCYFPRP	-0.289
RRIRHRPPRLPRPRPRPQKLPRP	-0.52
RRIRPRPPRLPRPRPRPGKCPRP	-0.125
RRIRFRPPRLPRPRPRPQTNPRP	-0.619
RRIRMRPPRLPRPRPRPRYRPRP	0.307
RRIRTRPPRLPRPRPRPRTYPRP	-0.288
RRIRTRPPRLPRPRPRPNVWPRP	0.0477

Sequence	shrunken log2 fold change
RRIRARPPRLPRPRPRPTDTPRP	0.535
RRIRLRPPRLPRPRPRPYMKPRP	-0.804
RRIRQRPPRLPRPRPRPPQEPRP	-0.00749
RRIRKRPPRLPRPRPRPKAQPRP	0.313
RRIRLRPPRLPRPRPRPTCLPRP	-0.255
RRIRYRPPRLPRPRPRPLLPPRP	-0.266
RRIRNRPPRLPRPRPRPLQCPRP	-0.00595
RRIRYRPPRLPRPRPRPYTSPRP	-0.533
RRIRYRPPRLPRPRPRPHPMPRP	-0.191
RRIRHRPPRLPRPRPRPYKSPRP	-0.00494
RRIRFRPPRLPRPRPRPLAMPRP	-0.0206
RRIRRRPPRLPRPRPRPKFDPRP	0.101
RRIRCRPPRLPRPRPRPNNFPRP	-0.493
RRIRKRPPRLPRPRPRPCCLPRP	-0.0964
RRIRTRPPRLPRPRPRPYYTPRP	-0.336
RRIRCRPPRLPRPRPRPGFMPRP	-0.429
RRIRWRPPRLPRPRPRPYNAPRP	-0.307
RRIRSRPPRLPRPRPRPELEPRP	0.54
RRIRCRPPRLPRPRPRPGEKPRP	0.0653
RRIRMRPPRLPRPRPRPKHEPRP	0.767
RRIRHRPPRLPRPRPRPWDPPRP	-0.243
RRIRQRPPRLPRPRPRPYFIPRP	-1.23
RRIRQRPPRLPRPRPRPYCQPRP	-0.0564
RRIRHRPPRLPRPRPRPKSFPRP	-0.0233
RRIRTRPPRLPRPRPRPTDKPRP	-0.55

Sequence	shrunken log2 fold change
RRIRNRPPRLPRPRPRPWNPPRP	-0.0102
RRIRVRPPRLPRPRPRPKNGPRP	-0.129
RRIRGRPPRLPRPRPRPSPLPRP	0.539
RRIRKRPPRLPRPRPRPLMNPRP	0.158
RRIRTRPPRLPRPRPRPQFVPRP	-0.127
RRIRWRPPRLPRPRPRPMRAPRP	1.2
RRIRYRPPRLPRPRPRPDSNPRP	-2.93
RRIRWRPPRLPRPRPRPICDPRP	0.0755
RRIRWRPPRLPRPRPRPGNEPRP	0.403
RRIRCRPPRLPRPRPRPNWHPRP	-0.271
RRIRARPPRLPRPRPRPYCCPRP	-0.181
RRIRVRPPRLPRPRPRPVLKPRP	-0.193
RRIRVRPPRLPRPRPRPKAAPRP	0.1
RRIRERPPRLPRPRPRPTDGPRP	0.158
RRIRPRPPRLPRPRPRPYQVPRP	-0.203
RRIRFRPPRLPRPRPRPNHNPRP	-0.711
RRIRHRPPRLPRPRPRPICIPRP	-0.577
RRIRYRPPRLPRPRPRPSCHPRP	-0.0195
RRIRPRPPRLPRPRPRPCICPRP	-0.728
RRIRMRPPRLPRPRPRPVQTPRP	0.0257
RRIRLRPPRLPRPRPRPLERPRP	-0.000861
RRIRLRPPRLPRPRPRPVRCPRP	0.0127
RRIRLRPPRLPRPRPRPCAMPRP	0.00887
RRIRKRPPRLPRPRPRPAWMPRP	0.212
RRIRKRPPRLPRPRPRPEFWPRP	0.807

Sequence	shrunken log2 fold change
RRIRRRPPRLPRPRPRPNFWPRP	0.198
RRIRKRPPRLPRPRPRPESVPRP	0.234
RRIRSRPPRLPRPRPRPVMQPRP	0.138
RRIRHRPPRLPRPRPRPPKPPRP	0.116
RRIRSRPPRLPRPRPRPHWDPRP	0.00395
RRIRIRPPRLPRPRPRPISYPRP	-0.197
RRIRWRPPRLPRPRPRPQLQPRP	0.229
RRIRRRPPRLPRPRPRPKEEPRP	-0.00663
RRIRDRPPRLPRPRPRPDWCPRP	0.163
RRIRTRPPRLPRPRPRPSRNPRP	-0.0832
RRIRHRPPRLPRPRPRPSETPRP	-0.0359
RRIRPRPPRLPRPRPRPCHYPRP	-0.146
RRIRMRPPRLPRPRPRPEIYPRP	0.106
RRIRHRPPRLPRPRPRPLDHPRP	-0.34
RRIRCRPPRLPRPRPRPHYFPRP	-0.324
RRIRVRPPRLPRPRPRPCGKPRP	-0.15
RRIRGRPPRLPRPRPRPLGFPRP	0.755
RRIRGRPPRLPRPRPRPLSYPRP	0.00315
RRIRIRPPRLPRPRPRPLMHPRP	-0.384
RRIRGRPPRLPRPRPRPLYQPRP	0.0508
RRIRKRPPRLPRPRPRPNSVPRP	0.0305
RRIRFRPPRLPRPRPRPMFWPRP	-0.0645
RRIRIRPPRLPRPRPRPNPQPRP	-0.287
RRIRNRPPRLPRPRPRPSQDPRP	-0.102
RRIRWRPPRLPRPRPRPKRPPRP	0.873

Sequence	shrunken log2 fold change
RRIRDRPPRLPRPRPRPNCVPRP	0.0238
RRIRKRPPRLPRPRPRPTPMPRP	0.555
RRIRVRPPRLPRPRPRPNAQPRP	0.24
RRIRARPPRLPRPRPRPAGLPRP	0.387
RRIRDRPPRLPRPRPRPPQIPRP	-0.179
RRIRERPPRLPRPRPRPVVAPRP	0.182
RRIRFRPPRLPRPRPRPNPTPRP	0.0233
RRIRERPPRLPRPRPRPMRMPRP	-0.0542
RRIRLRPPRLPRPRPRPQKSPRP	-0.139
RRIRARPPRLPRPRPRPLVDPRP	0.498
RRIRNRPPRLPRPRPRPEKQPRP	0.0721
RRIRPRPPRLPRPRPRPTSEPRP	0.0181
RRIRGRPPRLPRPRPRPTVWPRP	1.32
RRIRMRPPRLPRPRPRPQDCPRP	0.0414
RRIRSRPPRLPRPRPRPPPYPRP	0.337
RRIRNRPPRLPRPRPRPTILPRP	-0.742
RRIRGRPPRLPRPRPRPVSPPRP	0.101
RRIRMRPPRLPRPRPRPTRRPRP	1.14
RRIRLRPPRLPRPRPRPIVWPRP	-0.027
RRIRCRPPRLPRPRPRPPGIPRP	3.39
RRIRKRPPRLPRPRPRPTQPPRP	0.606
RRIRARPPRLPRPRPRPRFEPRP	0.401
RRIRFRPPRLPRPRPRPQNAPRP	0.0534
RRIRHRPPRLPRPRPRPQMQPRP	-0.0236
RRIRNRPPRLPRPRPRPHNEPRP	-0.509

Sequence	shrunken log2 fold change
RRIRRRPPRLPRPRPRPYVKPRP	-0.166
RRIRGRPPRLPRPRPRPCHEPRP	0.492
RRIRRRPPRLPRPRPRPLHEPRP	-0.0162
RRIRYRPPRLPRPRPRPQFNPRP	-0.755
RRIRLRPPRLPRPRPRPYRGPRP	-0.246
RRIRKRPPRLPRPRPRPRSKPRP	0.254
RRIRSRPPRLPRPRPRPLFRPRP	-0.368
RRIRARPPRLPRPRPRPLEDPRP	0.241
RRIRTRPPRLPRPRPRPYLEPRP	-0.573
RRIRLRPPRLPRPRPRPGPCPRP	0.121
RRIRARPPRLPRPRPRPWDAPRP	0.108
RRIRCRPPRLPRPRPRPVTEPRP	-0.127
RRIRTRPPRLPRPRPRPSMKPRP	0.00896
RRIRVRPPRLPRPRPRPNSNPRP	-0.74
RRIRIRPPRLPRPRPRPQKEPRP	-0.0177
RRIRERPPRLPRPRPRPTHSPRP	-0.335
RRIRYRPPRLPRPRPRPLCRPRP	-0.863
RRIRNRPPRLPRPRPRPHHPPRP	-0.398
RRIRERPPRLPRPRPRPLDDPRP	-0.234
RRIRQRPPRLPRPRPRPIELPRP	-0.293
RRIRIRPPRLPRPRPRPNVDPRP	-0.272
RRIRKRPPRLPRPRPRPEFFPRP	0.7
RRIRTRPPRLPRPRPRPHRHPRP	-0.211
RRIRVRPPRLPRPRPRPLDQPRP	0.0826
RRIRVRPPRLPRPRPRPEAPPRP	0.000205

Reference: the supplement of paper PMC9112550, “Optimization of the antimicrobial peptide Bac7 by deep mutational scanning” (BMC Biology, 2022)
